Target: human CD166 on human cells or tissue (human) (UniProt Q13740)
Experiment: inhibition of adhesion of CD166-expressing HuT-78 cells to immobilized recombinant CD6

human CD166 on human cells or tissue (human), sequence (Q13740 28-583): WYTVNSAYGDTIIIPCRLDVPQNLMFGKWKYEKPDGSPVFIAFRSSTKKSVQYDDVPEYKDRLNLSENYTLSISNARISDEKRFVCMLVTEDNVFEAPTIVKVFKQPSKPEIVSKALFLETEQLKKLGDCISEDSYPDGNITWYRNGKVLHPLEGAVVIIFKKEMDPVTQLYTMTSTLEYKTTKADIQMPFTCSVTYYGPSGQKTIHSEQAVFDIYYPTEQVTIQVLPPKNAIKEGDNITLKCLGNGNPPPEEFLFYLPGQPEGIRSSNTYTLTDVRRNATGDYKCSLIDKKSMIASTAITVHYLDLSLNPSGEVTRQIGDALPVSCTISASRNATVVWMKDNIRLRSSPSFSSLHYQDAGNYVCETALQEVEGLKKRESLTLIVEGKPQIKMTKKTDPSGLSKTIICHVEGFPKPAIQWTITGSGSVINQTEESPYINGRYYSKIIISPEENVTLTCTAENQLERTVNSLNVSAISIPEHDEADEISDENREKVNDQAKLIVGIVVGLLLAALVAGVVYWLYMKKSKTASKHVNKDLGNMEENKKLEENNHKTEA

EC50: 3.7 nM
Substance: MAB656 (antibody)
